In PMC6800875, “Codon harmonization reduces amino acid misincorporation in bacterially expressed P. falciparum proteins and improves their immunogenicity” (AMB Express, 2019):

B1: histidine tag-free CH-PfCelTOS (natural protein)
chain: GTFRGNNGHNSSSSLYNGSQFIEQLNNSFTSAFLESQSMNKIGDDLAETISNELVSVLQKNSPTFLESSFDIKSEVKKHAKSMLKELIKVGLPSFENLVAENVKPPKVDPATYGIIVPVLTSLFNKVETAVGAKVSDEIWNYNSPDVSESEESLSDDFFD
notes: two non-native amino acid residues introduced by cloning; the chain is 161 residues long, so one more residue stands before them; begins at F R G and holds 158 PfCelTOS residues; natural residue numbering; Made from the CH-PfCelTOS clone by replacing the His-tag linker; this is surmised; also called His-tag free PfCelTOS; Histidine tag-free PfCelTOS; source: E. coli, purified (Q-Sepharose twice, …)
B2: N-PfCelTOS (P. falciparum cell-traversal protein for ookinetes and sporozoites, expressed from the native codon sequence) (natural protein)
chain: FRGNNGHNSSSSLYNGSQFIEQLNNSFTSAFLESQSMNKIGDDLAETISNELVSVLQKNSPTFLESSFDIKSEVKKHAKSMLKELIKVGLPSFENLVAENVKPPKVDPATYGIIVPVLTSLFNKVETAVGAKVSDEIWNYNSPDVSESEESLSDDFFD
notes: begins at F R G and holds 158 PfCelTOS residues; 174 residues in all with the 16 amino acid linker; natural residue numbering; also called N-protein; source: E. coli B834 (DE3), purified (Ni-NTA, Q-Sepharose); not shown: His6 (within a 16 amino acid linker), N-terminal, kept
B3: CH-PfCelTOS (P. falciparum cell-traversal protein for ookinetes and sporozoites, expressed from the codon harmonized sequence) (natural protein, UniProt Q8I5P1 25-182, looked up)
chain: B2 chain
notes: begins at F R G and holds 158 PfCelTOS residues; 174 residues in all with the 16 amino acid linker; natural residue numbering; also called CH-protein; source: E. coli B834 (DE3), purified (Ni-NTA, Q-Sepharose); not shown: His6 (within a 16 amino acid linker), N-terminal, kept

Legend:
[1] = target: the molecule itself; assay: SEC; calibrated Superdex G-200 column, PBS pH 7.4, 0.5 mL/min, 4 °C; three standards (66, 29, 12.4 kDa); oligomer size estimated from the elution volume
[2] = target: the molecule itself; assay: SDS-PAGE with western blot (band that resists denaturation); purified protein, untreated or incubated at 37 °C or 65 °C for 1, 4 and 24 h, on 4-20% Tris-glycine SDS-PAGE; blots probed with anti-His mAb and mAb 3D11.D4

| Protein | stoichiometry N [1] | stoichiometry N [2] |
| --- | --- | --- |
| B1 | ~4 |  |
| B2 | ~3 | ~2 |
| B3 | ~4 | ~2 |
